From the supplement of paper PMC7125110
± gives the standard error. For some assays here: Fewer inactive variants are shown than the library holds.

B1: glmS ribozyme (parent)
chain: AUAAAAGCGCCAGAACUACAGAAAUGUAGUUGACGAGGAGGAGGUUUAUCGAAUUUUCGGCGGAUGCCUCCAAA

Tests used:
Conditions in all cases: with glucosamine-6-phosphate
glucosamine-6-phosphate [1] = variants of: B1; experiment: kcat; higher = faster cleavage; RNA array
Procedure, shortened: (§1)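 Glucosamine-6-phosphate (40 μM to 10 mM) in HEPES/KCl/Mg(OAc)2 buffer was flowed over sequenced MiSeq chips, and tiles were imaged over ~14 h. Barcoded ribozyme variants there had been transcribed in situ by E. coli RNA polymerase and were tracked through a hybridised Cy3 probe at 37 °C. One- or two-exponential decay fits to per-tile medians, normalised to baseline and to non-cleaving reference variants, gave kobs. kcat and KM came from weighted Michaelis–Menten fits across concentrations.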

glucosamine-6-phosphate [2] = variants of: B1; experiment: KM; higher = weaker cofactor use; RNA array
Procedure, shortened: as §1

glucosamine-6-phosphate [3] = variants of: B1; experiment: self-cleavage kobs at 2500 uM GlcN6P; higher = faster cleavage; RNA array
Procedure, shortened: as §1

glucosamine-6-phosphate [4] = variants of: B1; experiment: self-cleavage kobs at 10000 uM GlcN6P; higher = faster cleavage; RNA array
Procedure, shortened: as §1

glucosamine-6-phosphate [5] = variants of: B1; experiment: self-cleavage kobs at 40 uM GlcN6P; higher = faster cleavage; RNA array
Procedure, shortened: as §1

glucosamine-6-phosphate [6] = variants of: B1; experiment: self-cleavage kobs at 160 uM GlcN6P; higher = faster cleavage; RNA array
Procedure, shortened: as §1

glucosamine-6-phosphate [7] = variants of: B1; experiment: self-cleavage kobs at 640 uM GlcN6P; higher = faster cleavage; RNA array
Procedure, shortened: as §1

Variant	kcat (glucosamine-6-phosphate [1])	KM (glucosamine-6-phosphate [2])	self-cleavage kobs at 2500 uM GlcN6P (glucosamine-6-phosphate [3])	self-cleavage kobs at 10000 uM GlcN6P (glucosamine-6-phosphate [4])	self-cleavage kobs at 40 uM GlcN6P (glucosamine-6-phosphate [5])	self-cleavage kobs at 160 uM GlcN6P (glucosamine-6-phosphate [6])	self-cleavage kobs at 640 uM GlcN6P (glucosamine-6-phosphate [7])
A53C C68G	< 1e-05 s⁻¹	–	–	–	–	–	–
A14U A48C	7.33e-05 ± 4.6e-06 s⁻¹	2020 ± 420 µM	3.85e-05 ± 9.5e-06 s⁻¹	6.17e-05 ± 9.4e-06 s⁻¹	–	–	–
A14U A48U	0.000103 ± 7.3e-06 s⁻¹	9240 ± 1300 µM	–	5.37e-05 ± 9.7e-06 s⁻¹	–	–	–
A12U C71G	0.00158 ± 0.00072 s⁻¹	–	0.000947 ± 0.00021 s⁻¹	0.00305 ± 0.00048 s⁻¹	0.000203 ± 2.3e-05 s⁻¹	0.000316 ± 5.2e-05 s⁻¹	0.00125 ± 0.00015 s⁻¹
A39U C68G	0.000151 ± 1.6e-05 s⁻¹	998 ± 310 µM	0.000126 ± 1.2e-05 s⁻¹	0.000127 ± 1.3e-05 s⁻¹	–	–	5.37e-05 ± 7.8e-06 s⁻¹
A6U C50U	< 1e-05 s⁻¹	–	< 1e-05 s⁻¹	–	–	–	–
U46A U69C	0.00197 ± 0.00058 s⁻¹	1590 ± 770 µM	0.00122 ± 0.00015 s⁻¹	0.00162 ± 0.00027 s⁻¹	9.53e-05 ± 1.9e-05 s⁻¹	0.000133 ± 2.7e-05 s⁻¹	0.00073 ± 0.00012 s⁻¹
C68U U69C	8.69e-05 ± 6.8e-06 s⁻¹	2850 ± 730 µM	3.88e-05 ± 1.4e-05 s⁻¹	6.79e-05 ± 1.1e-05 s⁻¹	–	–	–
A39G A42U	0.000818 ± 0.00016 s⁻¹	1510 ± 540 µM	0.00045 ± 0.00014 s⁻¹	0.000751 ± 0.00014 s⁻¹	4.94e-05 ± 1.9e-05 s⁻¹	7.49e-05 ± 2.2e-05 s⁻¹	0.00023 ± 5.4e-05 s⁻¹
C10G C11G	< 1e-05 s⁻¹	–	–	–	< 1e-05 s⁻¹	< 1e-05 s⁻¹	–
A15G G43A	8.91e-05 ± 1.1e-05 s⁻¹	2300 ± 940 µM	4.89e-05 ± 1.5e-05 s⁻¹	7.17e-05 ± 1.4e-05 s⁻¹	< 1e-05 s⁻¹	–	–
U46G C71A	0.00159 ± 0.00031 s⁻¹	935 ± 350 µM	0.000985 ± 0.00028 s⁻¹	0.00143 ± 0.00019 s⁻¹	5.65e-05 ± 1.3e-05 s⁻¹	–	0.000943 ± 0.00016 s⁻¹
U31C U57G C67A	< 1e-05 s⁻¹	–	–	–	–	< 1e-05 s⁻¹	–
A53G G59U	2.73e-05 ± 4.3e-06 s⁻¹	–	2.98e-05 ± 1.2e-05 s⁻¹	2.45e-05 ± 7.8e-06 s⁻¹	–	–	–
A64C C68A	< 1e-05 s⁻¹	–	–	< 1e-05 s⁻¹	< 1e-05 s⁻¹	–	–
C11U A42G	0.00345 ± 0.0015 s⁻¹	–	0.00178 ± 0.0004 s⁻¹	0.0022 ± 0.00065 s⁻¹	9.14e-05 ± 3.5e-05 s⁻¹	0.000114 ± 3e-05 s⁻¹	0.000561 ± 0.00013 s⁻¹
C16U	0.0542 ± 0.005 s⁻¹	2230 ± 230 µM	0.0272 ± 0.0015 s⁻¹	0.0458 ± 0.0022 s⁻¹	0.000969 ± 1.7e-05 s⁻¹	0.00308 ± 0.0002 s⁻¹	0.0121 ± 0.00055 s⁻¹
